According to patent US20180326058A1 (Chugai, published 2018):

T1: mouse CD3 (mouse)
T1 chain: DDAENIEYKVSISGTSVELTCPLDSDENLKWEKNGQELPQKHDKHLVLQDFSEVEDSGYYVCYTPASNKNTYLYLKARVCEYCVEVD

T2: mouse FcgRII (mouse, UniProt P08101 30-210)
T2 construct: Used as the soluble analyte in Biacore; also called mFcgRII
T2 sequence (looked up): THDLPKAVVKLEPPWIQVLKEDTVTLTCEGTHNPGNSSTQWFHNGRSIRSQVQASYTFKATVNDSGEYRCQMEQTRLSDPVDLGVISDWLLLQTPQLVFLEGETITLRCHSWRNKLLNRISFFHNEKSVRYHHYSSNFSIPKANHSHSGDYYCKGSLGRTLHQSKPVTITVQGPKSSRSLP

T3: mouse FcgRIV (mouse, UniProt A0A0B4J1G0 21-203)
T3 construct: Used as the soluble analyte in Biacore; also called mFcgRIV
T3 sequence: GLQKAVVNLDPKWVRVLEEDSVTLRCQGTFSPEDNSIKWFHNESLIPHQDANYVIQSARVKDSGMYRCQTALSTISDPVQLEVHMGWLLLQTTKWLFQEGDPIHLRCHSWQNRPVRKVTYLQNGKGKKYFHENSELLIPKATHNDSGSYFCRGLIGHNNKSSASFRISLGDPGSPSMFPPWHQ

T4: mouse FcgRI (mouse, UniProt P26151 25-297)
T4 construct: Used as the soluble analyte in Biacore; also called mFcgRI
T4 sequence (looked up): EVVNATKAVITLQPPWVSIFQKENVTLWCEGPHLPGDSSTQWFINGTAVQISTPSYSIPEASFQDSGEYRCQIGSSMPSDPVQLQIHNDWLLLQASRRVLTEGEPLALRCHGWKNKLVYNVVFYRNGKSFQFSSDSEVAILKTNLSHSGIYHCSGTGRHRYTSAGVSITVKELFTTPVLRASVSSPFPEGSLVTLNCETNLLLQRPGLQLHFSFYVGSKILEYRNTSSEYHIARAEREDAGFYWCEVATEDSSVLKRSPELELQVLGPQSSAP

T5: mouse FcgRIII (mouse, UniProt P08508 31-215)
T5 construct: Used as the soluble analyte in Biacore; also called mFcgRIII
T5 sequence (looked up): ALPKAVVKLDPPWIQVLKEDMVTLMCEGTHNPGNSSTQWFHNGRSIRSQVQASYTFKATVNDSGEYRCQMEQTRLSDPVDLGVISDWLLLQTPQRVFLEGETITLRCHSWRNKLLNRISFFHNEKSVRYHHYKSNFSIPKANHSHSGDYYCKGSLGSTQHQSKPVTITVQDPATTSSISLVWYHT

B1: anti-mouse CTLA4/anti-mouse CD3 bispecific antibody (hUH02UL01/2C11-F760) (bispecific antibody, human IgG1, kappa, N297A)
heavy 1: QVQLQESGPGLVKPSETLSLTCTVSGYSISSGYGWNWIRQPPGKGLEWIGFIYYEGSTYYNPSIKSRISITRDTSKNQFFLQVNSVTTEDTATYYCARQTGYFDYWGQGTLVTVSSASTKGPSVFPLAPSSKSTSGGTAALGCLVKDYFPEPVTVSWNSGALTSGVHTFPAVLQSSGLYSLSSVVTVPSSSLGTQTYICNVNHKPSNTKVDKKVEPKSCDKTHTCPPCPAPELRGGPKVFLFPPKPKDTLMISRTPEVTCVVVDVSHEDPEVKFNWYVDGVEVHNAKTKPREEQYASTYRVVSVLTVLHQDWLNGKEYKCKVSNKALPAPIEKTISKAKGQPREPQVYTLPPSRDELTKNQVSLTCLVKGFYPSDIAVEWESNGQPENNYKTTPPYLDSDGSFFLYSKLTVDKSRWQQGNVFSCSVMHEALHNHYTQESLSLSP
light 1: not shown
heavy 2: EVQLVESGGGLVQPGKSLKLSCEASGFTFSGYGMHWVRQAPGRGLESVAYITSSSINIKYADAVKGRFTVSRDNAKNLLFLQMNILKSEDTAMYYCARFDWDKNYWGQGTMVTVSSASTKGPSVFPLAPSSKSTSGGTAALGCLVKDYFPEPVTVSWNSGALTSGVHTFPAVLQSSGLYSLSSVVTVPSSSLGTQTYICNVNHKPSNTKVDKKVEPKSCDKTHTCPPCPAPELRGGPKVFLFPPKPKDTLMISRTPEVTCVVVDVSHEDPEVKFNWYVDGVEVHNAKTKPREEQYASTYRVVSVLTVLHQDWLNGKEYKCKVSNKALPAPIEKTISKAKGQPREPQVYTLPPSRKELTKNQVSLTCLVKGFYPSDIAVEWESNGQPENNYKTTPPYLDSDGSFFLYSKLTVDKSRWQQGNVFSCSVMHEALHNHYTQKSLSLSP
light 2: DIQMTQSPSSLPASLGDRVTINCQASQDISNYLNWYQQKPGKAPKLLIYYTNKLADGVPSRFSGSGSGRDSSFTISSLESEDIGSYYCQQYYNYPWTFGPGTKLEIKRTVAAPSVFIFPPSDEQLKSGTASVVCLLNNFYPREAKVQWKVDNALQSGNSQESVTEQDSKDSTYSLSSTLTLSKADYEKHKVYACEVTHQGLSSPVTKSFNRGEC
notes: also called T cell-redirecting antibody
B2: control antibody hUH02hUL01-mIgG2a (antibody)
heavy: QVQLQESGPGLVKPSETLSLTCTVSGYSISSGYGWNWIRQPPGKGLEWIGFIYYEGSTYYNPSIKSRISITRDTSKNQFFLQVNSVTTEDTATYYCARQTGYFDYWGQGTLVTVSSAKTTAPSVYPLAPVCGDTTGSSVTLGCLVKGYFPEPVTLTWNSGSLSSGVHTFPAVLQSDLYTLSSSVTVTSSTWPSQSITCNVAHPASSTKVDKKIEPRGPTIKPCPPCKCPAPNLLGGPSVFIFPPKIKDVLMISLSPIVTCVVVDVSEDDPDVQISWFVNNVEVHTAQTQTHREDYNSTLRVVSALPIQHQDWMSGKEFKCKVNNKDLPAPIERTISKPKGSVRAPQVYVLPPPEEEMTKKQVTLTCMVTDFMPEDIYVEWTNNGKTELNYKNTEPVLDSDGSYFMYSKLRVEKKNWVERNSYSCSVVHEGLHNHHTTKSFSRTPGK
light: DIVMTQSPDSLAVSLGERATINCKSSQSLFNSNAKTNYLNWYQQKPGQPPKLLIYYASTRHTGVPDRFSGSGSGTDFTLTISSLQAEDVAVYYCQQWYDYPYTFGAGTKVEIKRADAAPTVSIFPPSSEQLTSGGASVVCFLNNFYPKDINVKWKIDGSERQNGVLNSWTDQDSKDSTYSMSSTLTLTKDEYERHNSYTCEATHKTSTSPIVKSFNRNEC
notes: Same variable regions as hUH02hUL01-mFa55, with an unmodified mouse IgG2a constant region
B3: anti-mouse CTLA4 antibody hUH02hUL01-mFa55 (antibody, mouse IgG2a, kappa)
heavy: QVQLQESGPGLVKPSETLSLTCTVSGYSISSGYGWNWIRQPPGKGLEWIGFIYYEGSTYYNPSIKSRISITRDTSKNQFFLQVNSVTTEDTATYYCARQTGYFDYWGQGTLVTVSSAKTTAPSVYPLAPVCGDTTGSSVTLGCLVKGYFPEPVTLTWNSGSLSSGVHTFPAVLQSDLYTLSSSVTVTSSTWPSQSITCNVAHPASSTKVDKKIEPRGPTIKPCPPCKCPAPNLLGGPDVFIFPPKIKDVLMISLSPIVTCVVVDVSEDDPDVQISWFVNNVEVHTAQTQTHREDYNSTLRVVSALPIQHQDWMSGKEFKCKVNNKDLPAPIERTISKPKGSVRAPQVYVLPPPEEEMTKKQVTLTCMVTDFMPEDIYVEWTNNGKTELNYKNTEPVLDSDGSYFMYSKLRVEKKNWVERNSYSCSVVHEGLHNHHTTKSFSRTPGK
light: DIVMTQSPDSLAVSLGERATINCKSSQSLFNSNAKTNYLNWYQQKPGQPPKLLIYYASTRHTGVPDRFSGSGSGTDFTLTISSLQAEDVAVYYCQQWYDYPYTFGAGTKVEIKRADAAPTVSIFPPSSEQLTSGGASVVCFLNNFYPKDINVKWKIDGSERQNGVLNSWTDQDSKDSTYSMSSTLTLTKDEYERHNSYTCEATHKTSTSPIVKSFNRNEC
notes: Mouse IgG2a/kappa format; also called hUH02UL01-mFa55; ADCC-enhanced antibody

How the values were obtained:
[1] = target: T6, mouse CTLA4 (mouse, UniProt P09793 36-161, limits assumed); experiment: SPR Biacore T200, bispecific antibody captured on Protein A/G, antigen as analyte, 37 C
T6 construct: Soluble antigen used as the analyte in Biacore; also called mCTLA4
Procedure: (§1) Anti-mouse CTLA4/anti-mouse CD3 bispecific antibodies (hUH02UL01/2C11-F760) purified and prepared by the method of Reference Example 3-1 were analyzed for their antigen-antibody reactions with each antigen (mCTLA4 and mCD3) using Biacore T200 (GE Healthcare). The running buffer used was HBS-EP+ at pH7.4, and measurements were taken at 37° C. Protein A/G was immobilized onto a Sensor Chip CM4 by amine coupling. hUH02UL01/2C11-F760 was captured onto the sensor chip, and then the antigen (mouse CTLA4 or mouse CD3) was allowed to interact as an analyte (for 120 seconds for mouse CTLA4 and for 90 seconds for mouse CD3), and changes in the bound amount were observed. The running buffer was used for dilution of hUH02UL01/2C11-F760. The measurement results were analyzed by curve fitting using the Biacore T200 Evaluation Software (GE Healthcare) to calculate the association rate constants ka (1/Ms) and the dissociation rate constants kd (l/s). From those values, the dissociation constants KD (M) were determined.

[2] = target: T1, mouse CD3; experiment: as above
Procedure: as §1

[3] = target: T2, mouse FcgRII; experiment: SPR Biacore T200, antibody captured on Protein A/G, FcgR as analyte, 25 C
Procedure: (§2) Anti-mouse CTLA4 antibody hUH02hUL01-mFa55 and control antibody hUH02hUL01-mIgG2a (the heavy chain variable region UH02 is SEQ ID NO: 28, the light chain variable region UL01 is SEQ ID NO: 29, the heavy chain constant region mIgG2a is SEQ ID NO: 32, and the light chain constant region mk1 is SEQ ID NO: 31) purified and prepared by the method of Reference Example 2-1 were analyzed for their antigen-antibody reactions with various mouse FcgRs (mFcgRI, II, III, and IV) using Biacore T200 (GE Healthcare). The running buffer used was 20 mmol/L ACES, 150 mmol/L NaCl, 0.05% (w/v) Tween20 at pH7.4, and measurements were taken at 25° C. Protein A/G was immobilized onto a Sensor Chip CM7 by amine coupling. hUH02hUL01-mFa55 was captured onto the sensorchip, and then FcgR was allowed to interact as an analyte for 120 seconds, and change in the bound amount was observed. The running buffer was used for dilution of hUH02hUL01-mFa55. The measurement results were analyzed by curve fitting using the Biacore T200 Evaluation Software (GE Healthcare) to calculate the association rate constants ka (1/Ms) and the dissociation rate constants kd (l/s). From those values, the dissociation constants KD (M) were determined.

[4] = target: T3, mouse FcgRIV; experiment: as above
Procedure: as §2

[5] = target: T4, mouse FcgRI; experiment: as above
Procedure: as §2

[6] = target: T5, mouse FcgRIII; experiment: as above
Procedure: as §2

Row | Binder | Kd [1] [nM] | koff [1] [s⁻¹] | kon [1] [M⁻¹ s⁻¹] | Kd [2] [nM] | koff [2] [s⁻¹] | kon [2] [M⁻¹ s⁻¹] | Kd [3] [nM] | koff [3] [s⁻¹] | kon [3] [M⁻¹ s⁻¹] | Kd [4] [nM] | koff [4] [s⁻¹] | kon [4] [M⁻¹ s⁻¹] | Kd [5] [nM] | koff [5] [s⁻¹] | kon [5] [M⁻¹ s⁻¹] | Kd [6] [nM] | koff [6] [s⁻¹] | kon [6] [M⁻¹ s⁻¹]
1 | B1 | 1.23 | 0.00053 | 430000 | 1160 | 0.0712 | 61600 | – | – | – | – | – | – | – | – | – | – | – | –
2 | B2 | – | – | – | – | – | – | 780 | 1.1 | 1.3e+06 | 13 | 0.016 | 1.2e+06 | 6.1 | 0.0047 | 780000 | 250 | 0.51 | 2e+06
3 | B3 | – | – | – | – | – | – | 370 | 0.76 | 2.1e+06 | 1.9 | 0.0028 | 1.5e+06 | 2.5 | 0.0031 | 1.2e+06 | 260 | 0.62 | 2.4e+06
